Data reported in patent US20230049152A1 (Genentech, published 2023).

T1: human ACKR4 (human, UniProt Q9NPB9 1-350)
T1 construct: whole, on cells; transiently expressed on HEK293 cells
T1 sequence (looked up): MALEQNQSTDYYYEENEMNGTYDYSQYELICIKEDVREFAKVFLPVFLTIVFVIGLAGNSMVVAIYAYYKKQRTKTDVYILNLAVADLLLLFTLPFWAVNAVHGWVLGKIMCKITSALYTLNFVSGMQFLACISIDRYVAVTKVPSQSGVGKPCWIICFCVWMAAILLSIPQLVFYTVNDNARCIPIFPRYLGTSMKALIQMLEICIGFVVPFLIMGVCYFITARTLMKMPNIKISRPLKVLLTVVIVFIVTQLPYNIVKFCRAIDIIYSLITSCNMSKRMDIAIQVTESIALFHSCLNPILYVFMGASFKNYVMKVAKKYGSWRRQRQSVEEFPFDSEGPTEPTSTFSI

T2: human CCR4 (human, UniProt P51679 1-360)
T2 construct: whole, on cells; transiently expressed on HEK293 cells
T2 sequence (looked up): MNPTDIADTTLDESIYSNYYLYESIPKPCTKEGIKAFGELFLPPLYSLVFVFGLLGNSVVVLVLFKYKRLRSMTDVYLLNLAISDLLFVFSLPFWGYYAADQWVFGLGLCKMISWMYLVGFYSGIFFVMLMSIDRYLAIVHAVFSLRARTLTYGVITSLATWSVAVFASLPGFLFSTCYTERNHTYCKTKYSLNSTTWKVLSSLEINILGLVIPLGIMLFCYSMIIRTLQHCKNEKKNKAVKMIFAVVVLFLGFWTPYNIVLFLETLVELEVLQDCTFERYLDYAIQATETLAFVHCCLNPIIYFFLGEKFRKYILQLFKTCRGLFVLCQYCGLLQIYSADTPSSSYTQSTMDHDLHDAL

T3: human ACKR2 (human, UniProt O00590 1-384)
T3 construct: whole, on cells; transiently expressed on HEK293 cells
T3 sequence (looked up): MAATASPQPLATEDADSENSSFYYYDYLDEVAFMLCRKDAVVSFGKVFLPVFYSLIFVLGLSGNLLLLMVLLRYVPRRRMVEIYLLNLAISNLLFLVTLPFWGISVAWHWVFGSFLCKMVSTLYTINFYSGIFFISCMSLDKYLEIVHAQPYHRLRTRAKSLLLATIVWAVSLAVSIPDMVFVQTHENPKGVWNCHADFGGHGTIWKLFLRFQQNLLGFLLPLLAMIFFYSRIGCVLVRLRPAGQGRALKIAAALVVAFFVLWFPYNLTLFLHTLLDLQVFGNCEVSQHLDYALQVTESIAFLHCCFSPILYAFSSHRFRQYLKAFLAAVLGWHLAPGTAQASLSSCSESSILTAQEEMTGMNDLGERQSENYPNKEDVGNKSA


Tests used:
human ACKR4 = biological target: T1, human ACKR4; assay: flow cytometry, HEK293 with N-term FLAG-tagged human ACKR4
Excerpt: (§1) FIGS. 4A-4F depicts the binding data of hu.Ab3.H1L1 (FIG. 4A), hu.Ab4.H1L1 (FIG. 4B), and hu.Ab5.H1L1 (FIG. 4C), as well as the commercial anti-CCR8 mAbs murine anti-human CCR8 mAb 433H (BD Biosciences) (FIG. 4D), and murine anti-human CCR8 mAb L263G8 (Biolegend) (FIG. 4E), and the humanized anti-human Yoshida anti-CCR8 mAb (FIG. 4F), to HEK293 cells that were transiently transfected with N-term FLAG-tagged plasmids encoding for human GPCRs (CCR2, CCR3, CCR4, CCR5, CCR8, CXCR4, ACKR2, and ACKR4), hCCR8 constructs, or with a mock construct using transIT X2 (reagent:DNA=3:1).
(§2) To confirm the selectivity to CCR8, the binding of hu.Ab3.H1L1, hu.Ab4.H1L1, and hu.Ab5.H1L1, as well as the Yoshida humanized anti-human CCR8, murine anti-human CCR8 mAb L263G8 (Biolegend, Commercial Ab) and murine anti-human CCR8 mAb 433H (BD Biosciences, Commercial Ab), were characterized by flow cytometry on HEK293 cells that were transiently transfected with plasmids encoding for FLAG-tagged other related human GPCRs (CCR2-5, CXCR4, ACKR2, and ACKR4). Cell surface expression of each GPCR was confirmed by staining with an anti-FLAG antibody control. […]

human CCR4 = biological target: T2, human CCR4; assay: flow cytometry, HEK293 with N-term FLAG-tagged human CCR4
Excerpt: as §1, §2

human ACKR2 = biological target: T3, human ACKR2; assay: flow cytometry, HEK293 with N-term FLAG-tagged human ACKR2, procedure of FIG. 4
Excerpt: To confirm the selectivity to CCR8, the binding of hu.Ab3.H1L1, hu.Ab4.H1L1, and hu.Ab5.H1L1, as well as the Yoshida humanized anti-human CCR8, murine anti-human CCR8 mAb L263G8 (Biolegend, Commercial Ab) and murine anti-human CCR8 mAb 433H (BD Biosciences, Commercial Ab), were characterized by flow cytometry on HEK293 cells that were transiently transfected with plasmids encoding for FLAG-tagged other related human GPCRs (CCR2-5, CXCR4, ACKR2, and ACKR4). Cell surface expression of each GPCR was confirmed by staining with an anti-FLAG antibody control. In particular, HEK293 cells were transfected with N-term FLAG-tagged human CCR2, CCR3, CCR4, CCR5, CXCR4, ACKR2, ACKR4, hCCR8 constructs, or with a Mock construct using transIT X2 (reagent:DNA=3:1) for 24 hours, and surface stained with various anti-hCCR8 monoclonal antibodies at 5 ug/ml, or rabbit anti-Flag pAb (Sigma) followed by AF647-anti-hIgG or AF647-anti-RbIgG respectively. Antibodies hu.Ab4.H1L1, and hu.Ab5.H1L1, only stained the hCCR8-containing cells, confirming their specificity to hCCR8. […] Thus, the CCR8 selective hu.Ab4.H1L1 and hu.Ab5.H1L1 antibodies with the best ADCC activities were carried forward.
To reconfirm that the Ab4 and Ab5 variants remained selective to CCR8 compared to the corresponding HIL1 variants, binding was analyzed by flow cytometry following the procedure as described for FIG. 4A and FIG. 4B. […]

GST-FcgR3a.V158 = biological target: T4, GST-FcgR3a.V158 (UniProt P08637 17-208, limits assumed); assay: ELISA, GST-FcgR3a.V158 captured by anti-GST antibody
T4 construct: Captured by anti-GST antibody on ELISA plate; also called FcgR3a.V158 protein; Fcgamma RIIIa V158; not shown: GST tag
T4 sequence (P08637 17-208 F176V limits assumed): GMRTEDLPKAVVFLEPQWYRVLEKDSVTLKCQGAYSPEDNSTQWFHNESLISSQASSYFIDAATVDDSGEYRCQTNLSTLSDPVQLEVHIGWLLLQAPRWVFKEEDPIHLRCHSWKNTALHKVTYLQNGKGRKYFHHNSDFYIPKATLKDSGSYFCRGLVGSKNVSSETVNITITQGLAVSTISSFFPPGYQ
Procedure: The binding of fucosylated and afucosylated variants of hu.Ab5.H13L1 and hu.Ab4.H12L3 to both FcgR3a proteins by ELISA was studied. Briefly, an anti-GST antibody was coated on Nunc Maxisorp plates. GST-FcgR3a.V158 and GST-FcgR3a.F158 were captured at 500 ng/mL. Plates were then washed and then serially diluted anti-CCR8 antibodies starting at 100 ug/mL were incubated on the plate for 1 hour at room temperature. Plates were washed and bound antibody was detected by a HRP-conjugated anti-human IgG secondary antibody. Absorbance at 450 nm was measured by a plate reader. The data were fitted using a 4-parameter logistic curve in Softmax Pro.

Row | binding result (human ACKR4) | binding result (human CCR4) | binding result (human ACKR2) | EC50 (GST-FcgR3a.V158) [µg/mL] | Binder
1 | no binding (tested: 5 ug/ml) | no binding (tested: 5 ug/ml) |  |  | hu.Ab5.H1L1 (antibody, human IgG1, kappa) heavy: not shown light: DIQVTQSPSSLSASVGDRVTITCQASENIANALAWYQQKPGKPPKFLIYGASNLASGVPSRFSGSGSGTDFTFTISSLQPEDIATYYCQQAYYGNSFVEGTFGGGTKVEIKRTVAAPSVFIFPPSDEQLKSGTASVVCLLNNFYPREAKVQWKVDNALQSGNSQESVTEQDSKDSTYSLSSTLTLSKADYEKHKVYACEVTHQGLSSPVTKSFNRGEC
2 |  |  | no binding (tested: 5 ug/ml) | 0.39 | hu.Ab5.H13L1 (antibody, human IgG1, kappa, fucosylated human IgG1; also called Ab5 variant) heavy: not shown light: DIQVTQSPSSLSASVGDRVTITCQASENIANALAWYQQKPGKPPKFLIYGASNLASGVPSRFSGSGSGTDFTFTISSLQPEDIATYYCQQAYYGNSFVEGTFGGGTKVEIKRTVAAPSVFIFPPSDEQLKSGTASVVCLLNNFYPREAKVQWKVDNALQSGNSQESVTEQDSKDSTYSLSSTLTLSKADYEKHKVYACEVTHQGLSSPVTKSFNRGEC
3 | no binding (tested: 5 ug/ml) | no binding (tested: 5 ug/ml) |  |  | hu.Ab4.H1L1 (antibody, human IgG1, kappa, also called hu.Ab4.H1Ll) heavy: not shown light: DYQMTQSPSSLSASVGDRVTITCQASQSISSYLSWYQQKPGKRPKLLIYKASTLASGVPSRFSGSGSGTDFTLTISSLQPEDFATYYCQQGYTSSNIDNIFGGGTKVEIKRTVAAPSVFIFPPSDEQLKSGTASVVCLLNNFYPREAKVQWKVDNALQSGNSQESVTEQDSKDSTYSLSSTLTLSKADYEKHKVYACEVTHQGLSSPVTKSFNRGEC
4 |  |  | no binding (tested: 5 ug/ml) | 0.388 | hu.Ab4.H12L3 (antibody, human IgG1, kappa, fucosylated human IgG1; also called huCCR8-Ab4.H12L3.hIgG1; Ab4 variant) heavy: not shown light: DYQMTQSPSSLSASVGDRVTITCQASQSISSYLSWYQQKPGKAPKLLIYKASTLASGVPSRFSGSGSGTDFTLTISSLQPEDFATYYCQQGYTSSNIDNIFGGGTKVEIKRTVAAPSVFIFPPSDEQLKSGTASVVCLLNNFYPREAKVQWKVDNALQSGNSQESVTEQDSKDSTYSLSSTLTLSKADYEKHKVYACEVTHQGLSSPVTKSFNRGEC
